The target in assay [1] is u-PAR (Homo sapiens, UniProt Q03405). Description: Chemical cross-linking of 125I-ATF to purified u-PAR. The conditions noted are these: unlabelled reagent 100 nM, u-PAR approx. 1 nM, 125I-ATF approx. 1 nM. In kind it is binding. As for the experimental part: B) Affinity column eluate was diluted to yield an approximate concentration of u-PAR of 1 nM during the assay. The samples were preincubated alone (lane 2) or in the presence of the following unlabelled reagents at a concentration of 100 nM: bovine serum albumin (lane 3), t-PA (lane 4), plasminogen (lane 5), murine epidermal growth factor (lane 6), ATF (lane 7), active 54 kD u-PA (lane 8), DFP-inactivated 54 kD u-PA (lane 9). After preincubation for 15 min at room temperature, ^125I-labelled ATF (approximately 1 nM) was added, followed by incubation for 1 hour at 4° C. After incubation, chemical cross-linking was performed with DSS, after which the samples were analyzed by SDS-PACE on a 6-16% gradient gel under non-reducing conditions and autoradiography. […] Electrophoretic mobilities of molecular weight standard proteins are inducated (kD).
Cross-linking of u-PAR in complex mixtures or purified fractions to ^125I-labelled ATF was performed as described for solubilized receptor (Nielsen et al., 1988), except that 2 mM disuccinimidylsuberate (DSS) was used for cross-linking. Cross-linking of purified u-PAR to DFP-treated u-PA for analysis by SDS-PAGE and silver-staining was performed in the same manner, except that non-labelled DFP-treated u-PA was used as the ligand.

Assay [2] concerns the target uPAR-bound u-PA (Homo sapiens, UniProt P00749). In kind it is cell-based. As for the experimental part: U937 cells were grown in suspension in RPMI 1640 medium supplemented with 5% heat-inactivated fetal calf serum. PMA-stimulation of U937 cells was performed at a cell density of […] cells/ml with 150 nM PMA for 4 days. The adherent cell population was harvested with a rubber scraper and resuspended in PBS. […] The effect of PAI's on the activity of cell-bound u-PA was determined by the addition of varying concentrations of PAI-1 (0.18-18.4 nM) or PAI-2 (1.13-56.7 nM) to the incubations at the same time as the addition of plasminogen. Curves were then constructed of plasmin concentration against time. […] [pln]∞ was calculated from the relationship: [[…]]0) equation.2 where Δ[pln]0 is the initial rate of plasmin generation which was determined in control incubations in the absence of inhibitors. […] Association rate constants (second-order rate constants) were calculated from the slope of the line of double reciprocal plots of kapp against inhibitor concentration.

The target in assay [3] is u-PA (Homo sapiens, UniProt P00749). Description: Inhibition of u-PA in solution by PAI's (association rate constants). In kind it is biochemical. The text has this: Plasminogen was purified from fresh human plasma as previously described (Danø and Reich, 1979), and was further separated into its two isoforms by elution from lysine-Sepharose with a linear gradient of 6-amino-hexanoic acid. Plasminogen isoform 2 was used in all experiments described here. u-PA (Mr 55,000) was obtained either by plasmin activation of pro-uPA (Ellis et al., 1987) or as Ukidan (Serono). Both preparations were greater than 95% high molecular weight u-PA by SDS-polyacrylamide gel electrophoresis. The concentration of active u-PA in these preparations was determined by active-site titration with p-nitrophenyl-p-guanidinobenzoate (Sigma Chem. Co.). DFP-inactivated u-PA was prepared as described in Example 1. […] The concentrations of active inhibitor in the various PAI preparations were determined by titration against u-PA immediately before use in the kinetic experiments. […] Residual u-PA activity was then measured by hydrolysis of 0.2 mM Glu-Gly-Arg-AMC (Bachem, Switzerland).
The effect of PAI's on the activity of cell-bound u-PA was determined by the addition of varying concentrations of PAI-1 (0.18-18.4 nM) or PAI-2 (1.13-56.7 nM) to the incubations at the same time as the addition of plasminogen. […]
[pln]∞ was calculated from the relationship: […]
where Δ[pln]0 is the initial rate of plasmin generation which was determined in control incubations in the absence of inhibitors. […]

Like-named read-outs stand apart in the source and are kept apart here.

For “Plg: native human plasminogen (glutamic acid N-terminal) purified from human plasma on lysine-Sepharose”, the “Competition for binding and cross-linking of 125I-labelled ATF to purified u-PAR” value in assay [1] is listed as “no competition”.

B1: PAI-2: human type-2 plasminogen activator inhibitor purified from U937 cells (protein, UniProt P05120 1-415, looked up)
Plasminogen activator …: MEDLCVANTLFALNLFKHLAKASPTQNLFLSPWSISSTMAMVYMGSRGSTEDQMAKVLQFNEVGANAVTPMTPENFTSCGFMQQIQKGSYPDAILQAQAADKIHSSFRSLSSAINASTGNYLLESVNKLFGEKSASFREEYIRLCQKYYSSEPQAVDFLECAEEARKKINSWVKTQTKGKIPNLLPEGSVDGDTRMVLVNAVYFKGKWKTPFEKKLNGLYPFRVNSAQRTPVQMMYLREKLNIGYIEDLKAQILELPYAGDVSMFLLLPDEIADVSTGLELLESEITYDKLNKWTSKDKMAEDEVEVYIPQFKLEEHYELRSILRSMGMEDAFNKGRANFSGMSERNDLFLSEVFHQAMVDVNEEGTEAAAGTGGVMTGRTGHGGPQFVADHPFLFLIMHKITNCILFFGRFSSP
As for B1, in assay [2] (U937 cells), the “Rate of inhibition of cell-bound u-PA relative to u-PA in solution” value is reported as “approximately 60%”. Besides, the Association rate constant in assay [2] (u-PA bound to uPAR on PMA-stimulated U937 cells) stood at 110000 M⁻¹ s⁻¹; in assay [2] (u-PA bound to uPAR on U937 cells), 330000 M⁻¹ s⁻¹; in assay [3] (direct assay with u-PA specific fluorogenic peptide substrate), 520000 M⁻¹ s⁻¹; in assay [3] (plasminogen activation assay), 530000 M⁻¹ s⁻¹.

For the origin of these results see patent publication US20030027981A1, “Urokinase-type plasminogen activator receptor” (priority 1989, published 2003).
